Target: IMP1 KH34 Y396F (Gallus gallus) (UniProt O42254)
Test: BLI
Settings: N6-methyladenosine at position 6; BLI: 10 mM Na2HPO4 pH 6.5, 50 mM NaCl, 1 mM TCEP, 2 mg/ml BSA, 0.005% Tween-20, 25 C; NMR: 80 uM protein, 37 C, NMR buffer not printed (protein in 10 mM …)

IMP1 KH34 Y396F (Gallus gallus), sequence (O42254 387-573 Y396F): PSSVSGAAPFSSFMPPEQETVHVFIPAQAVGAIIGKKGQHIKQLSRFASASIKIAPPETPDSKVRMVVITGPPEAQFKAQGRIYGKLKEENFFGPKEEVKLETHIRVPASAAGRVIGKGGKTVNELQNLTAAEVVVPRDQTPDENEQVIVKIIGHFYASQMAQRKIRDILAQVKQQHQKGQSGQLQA

ACTB zipcode RNA, m6A
Kd: 3.7 nM
